Measured values as given in patent publication EP4534564A1 (ImmuneOnco Biopharmaceuticals (Shanghai) Inc., dated 2025).

Experiments:
[1] = molecular target: PD-L1 on CHO-PD-L1 cells (Cat#YMAK-C006, ImmuneOnco) (UniProt Q9NZQ7 19-290, limits assumed); assay: cell-based or functional assay
[2] = molecular target: T1, monkey PD-L1 (Cat#90251-C08H, sino Biological) (monkey, UniProt G7PSE7 19-238); assay: BLI (Gator), human Fc probe, Kinetics Assay mode, 25 C
T1 construct: also called PD-L1-his

[3] = molecular target: recombinant human VEGF-165 protein (Cat#11066-HNAH, Sino Biologicals) (human, UniProt P15692-4 27-191); assay: ELISA, VEGF-165 coated 50 ng/well
Chain of recombinant human VEGF-165 protein (Cat#11066-HNAH, Sino Biologicals) (P15692 other isoform, or with tags, fused parts or gaps limits assumed): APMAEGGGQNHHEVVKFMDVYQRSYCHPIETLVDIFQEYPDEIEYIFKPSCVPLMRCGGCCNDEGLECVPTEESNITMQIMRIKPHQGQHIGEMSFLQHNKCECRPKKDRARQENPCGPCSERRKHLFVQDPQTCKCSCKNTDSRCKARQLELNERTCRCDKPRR

T1 sequence (G7PSE7 entry or part of it C08H C08H limits assumed, form in doubt): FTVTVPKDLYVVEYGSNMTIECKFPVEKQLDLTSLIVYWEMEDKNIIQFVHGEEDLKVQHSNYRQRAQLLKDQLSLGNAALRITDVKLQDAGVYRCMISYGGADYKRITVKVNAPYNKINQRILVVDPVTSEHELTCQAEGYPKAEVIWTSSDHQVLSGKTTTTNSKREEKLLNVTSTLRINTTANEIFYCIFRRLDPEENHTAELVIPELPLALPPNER
Chain of PD-L1 on CHO-PD-L1 cells (Cat#YMAK-C006, ImmuneOnco) (Q9NZQ7 19-290 limits assumed): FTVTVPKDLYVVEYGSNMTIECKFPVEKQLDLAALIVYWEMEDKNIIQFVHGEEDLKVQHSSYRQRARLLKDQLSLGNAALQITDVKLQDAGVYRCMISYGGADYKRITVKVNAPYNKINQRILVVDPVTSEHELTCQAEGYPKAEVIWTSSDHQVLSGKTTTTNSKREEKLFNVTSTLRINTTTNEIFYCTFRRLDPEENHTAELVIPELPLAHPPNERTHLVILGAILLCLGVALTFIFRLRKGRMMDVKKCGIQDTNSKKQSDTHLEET

| ADCC (%lysis) against Raji-PD-L1 cells by NK92MI cells expressing FcgRIIIa (158V) [1] | Kd [2] | koff [2] | kon [2] | binding result [3] | Binder |
| --- | --- | --- | --- | --- | --- |
| 6 fold lower than IMM2515H | 441 pM | 0.000218 s⁻¹ | 494000 M⁻¹ s⁻¹ |  | IMM2518 (bispecific antibody, human IgG1, kappa, Anti-PD-L1 IgG IMM2515H with VEGFR1D2 linked by a (G4S)3 linker to the N-terminus of each heavy chain; also called recombinant fusion protein) heavy: SDTGRPFVEMYSEIPEIIHMTEGRELVIPCRVTSPNITVTLKKFPLDTLIPDGKRIIWDSRKGFIISAATYKEIGLLTCEATVNGHLYKTNYLTHRQTNTGGGGSGGGGSGGGGSQVQLVQSGAEVKKPGASVKVSCKASGYTFTSNWMHWVRQAPGQGLEWMGMIHPNSGSSNYNEKFKSRVTMTRDTSTSTVYMELSSLRSEDTAVYYCARSYYGSSPYYFDYWGQGTLVTVSSASTKGPSVFPLAPSSKSTSGGTAALGCLVKDYFPEPVTVSWNSGALTSGVHTFPAVLQSSGLYSLSSVVTVPSSSLGTQTYICNVNHKPSNTKVDKRVEPKSCDKTHTCPPCPAPELLGGPSVFLFPPKPKDTLMISRTPEVTCVVVDVSHEDPEVKFNWYVDGVEVHNAKTKPREEQYNATYRVVSVLTVLHQDWLNGKEYKCKVSNKALPAPIAATISKAKGQPREPQVYTLPPSREEMTKNQVSLTCLVKGFYPSDIAVEWESNGQPENNYKTTPPVLDSDGSFFLYSKLTVDKSRWQQGNVFSCSVMHEALHNHYTQKSLSLSPGK light: not shown |
|  |  |  |  | binds | IMM2519 (bispecific antibody, human IgG1, kappa, Anti-PD-L1 IgG IMM2515H with VEGFR1D2 linked by a (G4S)3 linker to the N-terminus of each light chain; also called recombinant fusion protein) heavy: QVQLVQSGAEVKKPGASVKVSCKASGYTFTSNWMHWVRQAPGQGLEWMGMIHPNSGSSNYNEKFKSRVTMTRDTSTSTVYMELSSLRSEDTAVYYCARSYYGSSPYYFDYWGQGTLVTVSSASTKGPSVFPLAPSSKSTSGGTAALGCLVKDYFPEPVTVSWNSGALTSGVHTFPAVLQSSGLYSLSSVVTVPSSSLGTQTYICNVNHKPSNTKVDKRVEPKSCDKTHTCPPCPAPELLGGPSVFLFPPKPKDTLMISRTPEVTCVVVDVSHEDPEVKFNWYVDGVEVHNAKTKPREEQYNATYRVVSVLTVLHQDWLNGKEYKCKVSNKALPAPIAATISKAKGQPREPQVYTLPPSREEMTKNQVSLTCLVKGFYPSDIAVEWESNGQPENNYKTTPPVLDSDGSFFLYSKLTVDKSRWQQGNVFSCSVMHEALHNHYTQKSLSLSPGK light: not shown |
